In this test the target is OXAVL02 (OXA-1089). The test can be described thus: SEC-MALS; active SEC fractions dialyzed against PBS (Na2HPO4 10 mM, KH2PO4 1.8 mM, NaCl 137 mM, KCl 2.7 mM, pH 7.4); 100 uL at 0.5 to 1 mg/mL on Superdex 200 Increase 10/300; UV, MALS and refractive index detectors; monomer-dimer equilibrium. A general note: In gel filtration, larger molecules generally elute earlier.

With OXAVL02 (OXA-1089) (enzyme), the stoichiometry N – broadly, a count of units in the complex or per binding partner – worked out at 2.

Values taken from PMC9045261.
